Test results taken from the Human Domainome abundance scans (Beltran et al. 2025).

B1: Connector enhancer of kinase suppressor of ras 2, residues 9 to 71; numbered along this chain, Q8WXI2 (parent)
chain: SKWSPSQVVDWMKGLDDCLQQYIKNFEREKISGDQLLRITHQELEDLGVSRIGHQELILEAVD

Variants of: B1
Experiment: abundance fitness (aPCA) (normalised: wild type 0, dead -1); higher = more abundant; growth selection in yeast, the domain comes from the species named
Conditions: Homo sapiens

Abundance fitness, by site and new letter:
G33: E -0.855 | A -0.745 | R -0.631 | N -0.947 | D -0.906 | M -0.236 | Y -0.257 | F -0.198 | S -0.668 | H -0.669 | Q -0.559 | C -0.833 | W -0.216 | V -0.417 | P -0.84 | K -0.462 | L -0.423 | I -0.387 | T -0.645
I31: R -0.873 | W -0.74 | M -0.361 | H -0.71 | A -0.914 | V -0.053 | L -0.26 | Q -0.87 | D -0.931 | N -0.732 | Y -0.948 | F -0.573 | P -0.744 | C -0.99 | K -0.886 | E -0.827
R38: I -0.543 | L -0.377 | Q -0.134 | G -0.106 | A -0.031 | Y -0.446 | W -0.549 | E -0.302 | H -0.061 | P -0.681 | M -0.307 | C -0.189 | F -0.416 | K -0.002 | D -0.163 | N -0.098
L44: E -0.82 | W -0.964 | I -0.982 | M -0.399 | R -0.753 | Y -0.9 | T -0.781 | V -0.79 | D -0.657 | N -0.87 | H -0.914 | A -0.814 | S -0.784 | K -0.791 | G -0.804 | P -0.821 | F -0.722 | Q -0.932
D34: E 0.055 | W -0.142 | G -0.109 | P -0.105 | R -0.075 | K -0.056 | N -0.087 | Q -0.031 | Y -0.12 | V -0.159 | F -0.281 | I -0.213 | M -0.108 | H -0.168 | L -0.128 | T -0.118 | A 0.037 | S -0.06
K30: Q -0.036 | F -0.324 | W -0.572 | H -0.04 | C -0.097 | G -0.048 | M -0.113 | L -0.225 | T -0.419 | E -0.105 | A -0.069 | S -0.087 | D -0.225 | N -0.075 | V -0.519 | Y -0.391
S32: T 0.022 | E -0.341 | V -0.475 | C -0.029 | Y -0.264 | I -0.589 | G -0.074 | L -0.706 | N 0.024 | A -0.077 | F -0.493 | P -0.624 | R -0.142 | W -0.322 | H -0.361 | M -0.394
T40: L -1.07 | W -0.957 | G -0.12 | D -0.327 | Q -0.437 | F -1.21 | H -0.6 | E -0.548 | P -0.784 | I -0.893 | V -0.877 | A -0.499 | C -0.426 | M -0.907 | N -0.201 | K -0.186
E43: V -0.257 | Y -0.472 | I -0.46 | H -0.179 | F -0.455 | Q 0.03 | W -0.498 | K -0.003 | L -0.41 | P -0.987 | A -0.143 | T -0.151 | D 0.011 | S -0.137 | C -0.332 | G -0.131 | M -0.165 | R 0.006 | N -0.121
E45: F -0.033 | R -0.017 | W -0.193 | P -0.784 | I -0.076 | G -0.12 | N -0.015 | Q -0.007 | H -0.04 | D -0.167 | S -0.017 | L -0.045 | K 0.021 | M -0.066 | C -0.018 | T -0.034 | V -0.118
D46: V -0.11 | G -0.075 | K 0.072 | E -0.013 | Y -0.194 | S -0.037 | C -0.188 | T -0.041 | Q -0.032 | R 0.027 | N -0.006 | M -0.042 | I -0.178 | P -0.813 | F -0.097 | W -0.192 | A -0.054 | H 0.008
L37: P -0.407 | Y -0.28 | T -0.155 | N -0.154 | C -0.108 | H -0.158 | D -0.254 | F -0.239 | A -0.073 | E -0.193 | R -0.145 | K -0.132 | S -0.072 | V -0.078 | Q -0.151 | M 0.012 | G -0.168 | W -0.349
V49: D -0.777 | C -0.374 | H -0.926 | A -0.833 | I -0.088 | E -0.903 | F -0.866
I39: E -0.607 | L 0.01 | S -0.537 | D -0.569 | K -0.576 | W -0.737 | F -0.254 | A -0.424 | C -0.416 | M 0.009 | T -0.455 | G -0.699 | N -0.67 | Y -0.632 | Q -0.653 | R -0.717 | V -0.22 | H -0.65
G48: T -0.865 | M -0.871 | N -0.66 | L -0.991 | S -0.66 | V -1.01 | E -0.692 | D -0.64 | K -0.552 | W -1.07 | C -0.698 | A -0.844 | I -1.29 | H -0.813 | P -0.704
Q35: F -0.33 | L -0.392 | R 0.033 | Y -0.39 | K -0.054 | W -0.523 | V -0.19 | P -0.903 | M -0.152 | C -0.328 | E -0.172 | S -0.291 | G -0.485 | D -0.158 | A -0.088 | N -0.119
L47: T -0.805 | V -0.423 | Y -0.72 | A -0.681 | F -0.612 | G -0.857 | N -0.783 | C -0.592 | M -0.083 | Q -0.838 | P -0.762 | R -0.688 | E -0.795 | H -0.785 | D -0.857 | W -0.622 | I 0.003 | S -0.813
H41: N -0.097 | Q -0.037 | P -0.002 | E -0.076 | D -0.229 | C -0.157 | Y -0.075 | S -0.007 | G -0.077 | V -0.06 | K 0.029 | T -0.031 | M -0.125 | L -0.234 | I -0.184
Q42: T -0.118 | M -0.319 | Y -0.848 | K 0.002 | W -0.767 | R -0.03 | N -0.228 | D -0.348 | A -0.083 | G -0.193 | L -0.378 | P -0.254 | I -0.558 | C -0.395 | E -0.119 | V -0.258 | F -0.618 | S -0.128
L36: Q -0.898 | K -0.775 | E -0.769 | N -0.854 | W -1.04 | I -0.325 | H -0.971 | D -0.847 | S -0.846 | T -0.88 | V -0.713 | R -0.82 | C -0.961 | Y -1.01 | G -0.845 | M -0.334 | P -0.928 | A -0.958 | F -0.715
E29: Y -0.102
